Laboratory results from patent US7109170B2, “Region of factor IXa protease domain that interacts with factor VIIIa and methods therefor” (Saint Louis University, priority 1999, dated 2006).

Columns and labels:
factor XIa/Ca2+ = target: T1, factor XIa/Ca2+ (Homo sapiens, UniProt P03951); experiment: activation of factor IX mutants by factor XIa/Ca2+ (SDS gel); type: biochemical; settings: analyzed by SDS gel electrophoresis
T1 construct: purchased Enzyme Research Laboratories (South Bend, Ind.)
Method: The rates of activation of the protease domain factor IX mutants by VIIa/TF and by Factor Xla/Ca^2+ was also determined, under conditions described in Mathur et al., 1997, supra, either by VIIa/TF/Ca^2+ or by factor Xla/Ca^2+. The rates of the mutants were similar to that of IXNP as analyzed by SDS gel electrophoresis.
Various DEGR-ck-inhibited factor IXa proteins were prepared for these experiments as follows. IXNP, IXWT, and each mutant factor IX at 200 μg/ml was activated by factor XIa (2 μg/ml) for 90 min. in TBS, pH 7.4 (0.05 M Tris, 0.15 M NaCl, pH 7.4) containing 5 mM Ca^2+. […] DEGR-IXaNP, DEGR-IXaWT, and various DEGR-IXa mutant proteins were prepared as described in Mathur et al., 1997, supra, and free DEGR-ck was removed as described in Sabharwal et al., 1995, supra and Krishnaswamy, 1992, J. Biol. Chem. 267, 23696–23706.

[1] = system: Factor IX deficient plasma; experiment: coagulant activity of XIa-activated IXa proteins; type: biochemical
factor X [2] = target: T2, factor X (Homo sapiens, UniProt P00742); experiment: factor X activation by IXa proteins, Ca2+ and VIIIa, no phospholipid; type: biochemical; set-up: Normal human plasma factor IX (IXNP) and factor X were isolated as described in Bajaj and Birktoft; from tissue; host or cells: human plasma (factor X); factor VIII obtained from Dr. Leon Hoyer, American Red Cross; settings: 14 nM VIIIa, 400 nM factor X
Method: (§1) The ability of each activated mutant to activate factor X in the presence and absence of phospholipid and factor VIIIa was determined as follows. The activation was carried out at 37° C. in a 50 μl reaction volume, in TBS/BSA pH 7.4, for various time periods. At the end of the incubation time period, each reaction mixture received 1 μl of 0.5 M EDTA to stop further generation of factor Xa. A 40 μL aliquot was then added to 0.1 ml quartz cuvette containing S-2222 in 75 μL of TBS/BSA, pH 7.4. The final concentration of S-2222 was 100 μM. The p-nitroaniline release was measured continuously (ΔA405/min) for up to 20 min (Sabharwal et al., 1995 supra; Sabharwal et al., 1997, supra). Factor Xa generated was calculated from a standard curve constructed using factor Xa prepared from insolubilized Russell's viper venom.
(§2) Factor X activation measurements were made under four experimental regimes. In one, Ca^2+ and phospholipid were present. In this system activation was carried out for 5–15 minutes and the concentration of each IXa protein was 20 nM, phospholipid was 25 μM, and factor X was 100 nM. In the second regime, Ca^2+, phospholipid and factor VIIIa were present. […] In the third regime, only Ca^2+ was present. Here, activation was carried out for 2–20 min and concentration of each IXa protein was 400 nM and factor X was 1 μM. Finally, in the fourth regime, Ca^2+ and VIIIa were present. Here, activation was carried out for 15–120 sec and the concentration of each IXa protein was 2 μM, VIIIa was 14 nM, and factor X was 400 nM.
(§3) In all of the above factor X activation experiments, the incubation times chosen were those in which the factor Xa generated was always less than 10 nM. This precautionary measure was taken to prevent activation of factor X by the generated factor Xa (see, e.g., Link. and Castellino, 1982, Arch Biochem. Biophys. 215, 215–221). Further, in those incubation mixtures which contained […], control experiments were also performed in which factor VIIIa was omitted. […] In the presence of factor VIIIa, 10 μM phospholipid was used based upon previous observations (Mathur et al., 1997, supra; van Dieijen et al., 1981, J. Biol. Chem. 256, 3433–3442). The concentrations of factor X selected for each set of reaction conditions are those which are below or at the Km values (van Dieijen et al., supra; Fay and Koshibu, 1998, J Biol. Chem. 273, 19049–19054). In this region of the Michaelis-Menton curve, the rate of formation of factor Xa is proportional to the substrate factor X and therefore to the affinity of the factor IXa enzyme for factor X.
Target sequence in this assay (P00742 183-488 limits assumed, one chain of several): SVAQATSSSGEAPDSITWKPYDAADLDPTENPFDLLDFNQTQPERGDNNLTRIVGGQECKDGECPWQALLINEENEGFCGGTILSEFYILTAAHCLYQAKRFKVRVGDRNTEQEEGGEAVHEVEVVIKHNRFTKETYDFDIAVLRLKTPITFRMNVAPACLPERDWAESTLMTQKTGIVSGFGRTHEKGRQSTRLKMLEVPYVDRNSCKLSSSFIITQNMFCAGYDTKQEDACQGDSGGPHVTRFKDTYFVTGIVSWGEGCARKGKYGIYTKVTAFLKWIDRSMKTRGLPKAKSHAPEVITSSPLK
Target sequence in this assay (P00742 41-179 limits assumed, one chain of several): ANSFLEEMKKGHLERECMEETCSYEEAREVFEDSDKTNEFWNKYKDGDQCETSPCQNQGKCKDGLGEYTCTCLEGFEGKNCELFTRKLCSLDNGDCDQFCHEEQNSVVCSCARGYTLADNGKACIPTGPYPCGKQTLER

factor X [3] = target: T2, factor X; experiment: factor X activation in complete intrinsic Tenase system (IXa, Ca2+, phospholipid, VIIIa); type: biochemical; set-up: Normal human plasma factor IX (IXNP) and factor X were isolated as described in Bajaj and Birktoft; from tissue; host or cells: human plasma (factor X); factor VIII obtained from Dr. Leon Hoyer, American Red Cross; settings: 70 pM VIIIa, 0.5 nM IXa, 15 nM X, phospholipid present
Method: as §1, §2, §3
Target sequence in this assay (P00742 183-488 limits assumed, one chain of several): as the sequence (P00742 183-488 limits assumed, one chain of several) above
Target sequence in this assay (P00742 41-179 limits assumed, one chain of several): as the sequence (P00742 41-179 limits assumed, one chain of several) above
Next, the activation of factor X in a complete intrinsic Tenase system (IXa, Ca^2+, phospholipid, VIIIa) was studied.

[4] = target: mouse monoclonal antibody (mAb) that inhibits the interaction of factor IXa with factor VIIIa; experiment: binding of IX proteins to mAb that interferes with IXa:VIIIa interaction (coagulant based / competition assay)
Excerpt: The ability of the IX mutant proteins to bind to a mAb (Bajaj et al., 1985, supra) which interferes with the interaction of IXa and VIIIa was studied using a coagulant based assay as described in Usharani et al., 1985, J. Clin. Invest.

factor VIIIa [5] = target: T3, factor VIIIa (Homo sapiens, UniProt P00451); experiment: inhibition of Xa generation by active site-blocked (DEGR) IXa proteins, absence of phospholipid (Kd,app for VIIIa); type: biochemical; settings: active site-blocked (DEGR) IXa proteins, no phospholipid
T3 construct: purchased Dr. Leon Hoyer (American Red Cross, Rockville, Md.)
T3 sequence (P00451 20-759 limits assumed): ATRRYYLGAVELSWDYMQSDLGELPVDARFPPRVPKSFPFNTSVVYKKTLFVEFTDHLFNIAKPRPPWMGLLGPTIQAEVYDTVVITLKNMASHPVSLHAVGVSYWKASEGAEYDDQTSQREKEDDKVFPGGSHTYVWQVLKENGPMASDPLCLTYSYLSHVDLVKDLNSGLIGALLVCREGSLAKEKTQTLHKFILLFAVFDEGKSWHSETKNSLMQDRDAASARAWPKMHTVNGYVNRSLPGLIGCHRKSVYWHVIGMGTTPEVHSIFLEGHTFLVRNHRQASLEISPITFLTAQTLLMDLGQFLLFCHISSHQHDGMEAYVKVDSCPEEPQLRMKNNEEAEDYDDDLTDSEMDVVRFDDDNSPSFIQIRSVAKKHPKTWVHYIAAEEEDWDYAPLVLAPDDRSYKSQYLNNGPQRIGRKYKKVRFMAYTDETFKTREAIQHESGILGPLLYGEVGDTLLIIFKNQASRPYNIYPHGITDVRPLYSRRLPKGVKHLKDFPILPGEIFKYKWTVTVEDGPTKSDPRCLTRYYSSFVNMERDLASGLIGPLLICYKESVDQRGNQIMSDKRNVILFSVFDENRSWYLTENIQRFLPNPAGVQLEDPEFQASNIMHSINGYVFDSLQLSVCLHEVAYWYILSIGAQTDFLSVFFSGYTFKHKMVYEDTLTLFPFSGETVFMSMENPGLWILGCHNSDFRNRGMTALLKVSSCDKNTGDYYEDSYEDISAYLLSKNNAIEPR
T3 sequence (P00451 1668-2351 limits assumed): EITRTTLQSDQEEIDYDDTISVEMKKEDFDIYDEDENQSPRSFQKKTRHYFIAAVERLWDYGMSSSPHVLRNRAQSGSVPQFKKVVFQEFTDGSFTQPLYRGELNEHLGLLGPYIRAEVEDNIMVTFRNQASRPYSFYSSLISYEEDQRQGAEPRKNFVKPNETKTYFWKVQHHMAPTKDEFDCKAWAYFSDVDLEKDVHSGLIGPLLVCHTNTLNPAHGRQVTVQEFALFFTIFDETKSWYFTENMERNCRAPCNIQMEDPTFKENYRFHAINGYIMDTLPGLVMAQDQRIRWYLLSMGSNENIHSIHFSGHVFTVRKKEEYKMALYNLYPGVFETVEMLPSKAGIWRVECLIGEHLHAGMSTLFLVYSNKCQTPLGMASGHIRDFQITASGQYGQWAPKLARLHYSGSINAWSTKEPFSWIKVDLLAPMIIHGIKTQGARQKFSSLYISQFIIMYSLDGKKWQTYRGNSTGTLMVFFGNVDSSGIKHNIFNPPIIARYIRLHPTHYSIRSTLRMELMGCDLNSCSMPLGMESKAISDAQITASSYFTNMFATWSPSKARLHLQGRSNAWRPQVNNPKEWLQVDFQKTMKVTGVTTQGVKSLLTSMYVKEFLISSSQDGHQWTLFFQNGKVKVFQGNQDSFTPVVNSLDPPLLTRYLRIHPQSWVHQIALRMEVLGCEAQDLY
Method: (§4) Apparent Kds of factor VIIIa binding to various active site-blocked factor IXa proteins were determined from inhibition experiments as detailed in Mathur et al., 1997, supra. […] Reactions were carried out for 2 min and the rates of factor X activation were measured as outlined above.
(§5) Various DEGR-ck-inhibited factor IXa proteins were prepared for these experiments as follows. IXNP, IXWT, and each mutant factor IX at 200 μg/ml was activated by factor XIa (2 μg/ml) for 90 min. in TBS, pH 7.4 (0.05 M Tris, 0.15 M NaCl, pH 7.4) containing 5 mM Ca^2+.
(§6) Enzymol. 74, 481–508 given below:
(§7) [formula] where y is the rate of Xa formation in the presence of a given concentration of DEGR-IXa protein represented by x, a is the maximum rate of Xa formation in the absence of DEGR-IXa, and s is the slope factor. Each point was weighted equally and the data were fitted to Equation 1 using the nonlinear regression analysis program obtained from Erithacus Software (GraFit). […] To obtain the Kd,app values for the interaction of DEGR-IXa proteins with factor VIIIa, the following equation was used, as described by Cheng and Prusoff, 1973, Biochem. Pharmacol. 22, 3099–3108 and further discussed by Craig, 1993, Trends Pharmacol. Sci. 6, 68–71.

factor X [6] = target: T2, factor X; experiment: factor X activation by IXa proteins, Ca2+ only; type: biochemical; set-up: Normal human plasma factor IX (IXNP) and factor X were isolated as described in Bajaj and Birktoft; from tissue; host or cells: human plasma; settings: 1 μM X, 400 nM IXa, no phospholipid, no VIIIa
Method: as §1
as §2, with “Here, activation was carried out for 15–120 sec and the concentration of each IXa protein was 2 μM, VIIIa was 14 nM, and factor X was 400 nM.” left out
Target sequence in this assay (P00742 183-488 limits assumed): as the sequence (P00742 183-488 limits assumed, one chain of several) above
Target sequence in this assay (P00742 41-179 limits assumed): as the sequence (P00742 41-179 limits assumed, one chain of several) above

factor X [7] = target: T2, factor X; experiment: factor X activation by IXa proteins, Ca2+ and phospholipid, without VIIIa; type: biochemical; set-up: Normal human plasma factor IX (IXNP) and factor X were isolated as described in Bajaj and Birktoft; from tissue; host or cells: human plasma; settings: no VIIIa, 20 nM IXa, 25 μM phospholipid, 100 nM X
Method: as §1
as §2, with “Here, activation was carried out for 15–120 sec and the concentration of each IXa protein was 2 μM, VIIIa was 14 nM, and factor X was 400 nM.” left out
Target sequence in this assay (P00742 183-488 limits assumed): as the sequence (P00742 183-488 limits assumed, one chain of several) above
Target sequence in this assay (P00742 41-179 limits assumed): as the sequence (P00742 41-179 limits assumed, one chain of several) above

factor VIIIa [8] = settings: from other studies; cited from earlier work
[9] = from other studies; cited from earlier work
factor VIIIa [10] = target: T3, factor VIIIa; experiment: inhibition of Xa generation by active site-blocked (DEGR) IXa proteins, presence of phospholipid (Kd,app for VIIIa); type: biochemical; settings: active site-blocked (DEGR) IXa proteins, 10 μM phospholipid; read-out: Kd, app for interaction with factor VIIIa, PL-plus system
Method: as §4, §5, §6, §7

T1 sequence (P03951 388-625 limits assumed): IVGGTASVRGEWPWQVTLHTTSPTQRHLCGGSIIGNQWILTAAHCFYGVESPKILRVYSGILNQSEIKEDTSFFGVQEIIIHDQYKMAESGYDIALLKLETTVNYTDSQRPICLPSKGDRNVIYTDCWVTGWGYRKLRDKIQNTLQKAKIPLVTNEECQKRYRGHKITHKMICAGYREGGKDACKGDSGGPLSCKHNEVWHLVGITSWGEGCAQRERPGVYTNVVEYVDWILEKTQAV
T1 sequence (P03951 19-387 limits assumed): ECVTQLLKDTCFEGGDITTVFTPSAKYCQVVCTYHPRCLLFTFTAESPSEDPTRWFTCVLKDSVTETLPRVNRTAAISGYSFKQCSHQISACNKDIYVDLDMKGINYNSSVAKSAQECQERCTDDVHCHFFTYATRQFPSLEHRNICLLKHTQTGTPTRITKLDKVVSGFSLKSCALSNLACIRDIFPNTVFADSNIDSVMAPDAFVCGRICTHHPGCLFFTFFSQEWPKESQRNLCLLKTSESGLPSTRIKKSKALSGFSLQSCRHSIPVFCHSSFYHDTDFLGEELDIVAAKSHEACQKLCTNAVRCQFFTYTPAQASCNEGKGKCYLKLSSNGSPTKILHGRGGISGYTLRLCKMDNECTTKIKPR

## IXPCEGF1: factor IX in which EGF1 residues 52–85 are replaced by residues 51–92 of protein C
Factor XIa/Ca2+
  rate of activation by factor XIa/Ca2+: readily activated

## IXaT335A: activated factor IX mutant T335A
[1]
  coagulant activity as compared to IXaNP: ~35%
Factor X [2]
  X-activation rate, PL-minus system: 1.83 ± 0.18 nM/min
Factor X [3]
  X-activation rate, PL-plus system: 1.92 ± 0.11 nM/min
Factor X [3]; listed as IXaI335A
  X-activation rate, PL-plus system: ~1.9 nM/min

## IXQ50P: factor IX mutant that lacks the EGF1 domain Ca2+ binding site
[4]
  Kd: ~15 nM
Factor XIa/Ca2+
  rate of activation by factor XIa/Ca2+: readily activated

## IXaL330I: activated factor IX mutant L330I
[1]
  coagulant activity as compared to IXaNP: ~7%
Factor X [2]
  X-activation rate, PL-minus system: 0.94 ± 0.03 nM/min
Factor X [3]
  X-activation rate, PL-plus system: 0.95 ± 0.07 nM/min

## IXaQ50P: activated EGF1 domain mutant Q50P of factor IX
Factor VIIIa [5]
  Kd, app for interaction with factor VIIIa, PL-minus system: indistinguishable from that of normal IXa
Factor X [6]
  rate of factor X activation, Ca2+ only: ~0.39 nM/min
Factor X [7]
  rate of factor Xa generation: 0.07 nM/min

## R338A: factor IX R338A mutant described by Chang and coworkers [Protein R338A]
Factor VIIIa [8]
  factor VIIIa binding / affinity of variant: without an impairment in factor VIIIa binding
[9]
  activity of variant: slightly increased activity

## IXaPCEGF1: activated factor IX with EGF1 domain replaced by that of protein C
Factor VIIIa [5]
  Kd, app for interaction with factor VIIIa, PL-minus system: indistinguishable from that of normal IXa
Factor VIIIa [5]; read-out: Kd, app for interaction with factor VIIIa, PL-minus system
  Kd: 210 ± 10 nM
Factor X [6]
  rate of factor X activation, Ca2+ only: ~0.48 nM/min
Factor X [7]
  rate of factor Xa generation: 0.06 nM/min
Factor VIIIa [10]
  Kd: 5.71 ± 0.82 nM
